Laboratory results from patent US9809653B2, “Anti-LAMP1 antibodies and antibody drug conjugates, and uses thereof” (SANOFI, priority 2012, dated 2017).
Positions count from the first letter of the chain named.

B1: MAb1: murine monoclonal anti-LAMP1 antibody, VH SEQ ID NO: 1, VL SEQ ID NO: 5 (antibody, V domains shown)
VH: QVQLQQSGAELVKPGASVKMSCKASGYIFTNYNIHWVKKSPGQGLEWIGAIYPGNGDAPYSQKFKDKATLTADKSSSTTYMQLSRLTSEDSAVYYCVRANWDVAFAYWGQGTLVSVSA
VL: DIQMTQSPPSLSASLGGKVTITCKASQDIDRYMAWYQDKPGKGPRLLIHDTSTLQPGIPSRFSGSGSGRDYSFSISNLEPEDIATYYCLQYDNLWTFGGGTKLEIK
modifications: Antibody Fragment; antibody fragment
B2: MAb2: murine monoclonal anti-LAMP1 antibody, VH SEQ ID NO: 8, VL SEQ ID NO: 12 (antibody, V domains shown)
VH: QVQLQQSAAELARPGASVKMSCKASGYTFTSYTMHWVKQRPGQGLEWIGYFNPSSGYPEYNQKFKDKTTLTADKSSNTAFIQLNSLTSEDSAVYYCSRGYYYGSRGYALDFWGQGASVTVSS
VL: NIVLTQSPVSLAVSLGQRATISCRASESVDINGNTFMHWYQQKPGQSPKLVIYAASNIESGVPARFSGSGSSTDFTFTIDPVEADDVATYYCQQNIEDPWTFGGGTKVEIK
modifications: antibod fragment; antibody fragment

Assays:
Test in all cases: Binding onto membrane-anchored hybrid or mutated LAMP1 proteins (293-F cells) by flow cytometry
Set-up in all cases: species or system human/mouse
[1] = target: T1, Hybrid LAMP1 / glycan-deleted LAMP1 transmembrane proteins (Homo sapiens, UniProt P11279, A49S/D55E/N45S/N53T/S51L/V52T); details: pXL6013 LAMP1_mseq2_ΔGYQTI; Table 18
T1 construct: expressed in transfected cells; host or cells: 293-F (HEK293-derived), transient transfection
T1 sequence (P11279 with tags, fused parts or gaps N45S/A49S/S51L/V52T/N53T/D55E): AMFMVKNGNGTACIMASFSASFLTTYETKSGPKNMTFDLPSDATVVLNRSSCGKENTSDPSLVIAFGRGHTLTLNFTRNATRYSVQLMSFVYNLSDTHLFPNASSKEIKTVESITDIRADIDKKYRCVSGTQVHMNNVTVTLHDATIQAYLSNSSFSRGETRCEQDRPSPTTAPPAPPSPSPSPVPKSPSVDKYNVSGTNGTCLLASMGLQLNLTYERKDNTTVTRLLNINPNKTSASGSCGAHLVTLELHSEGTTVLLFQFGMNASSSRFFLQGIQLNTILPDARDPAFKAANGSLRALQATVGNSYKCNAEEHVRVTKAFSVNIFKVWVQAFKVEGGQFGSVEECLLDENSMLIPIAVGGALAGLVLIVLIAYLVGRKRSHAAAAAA
Experimental: (§1) Different LAMP1 proteins were expressed at the cell membrane of HEK293 cells after transient expression from mammalian plasmids encoding the entire coding sequence of LAMP1 deleted of the intracellular lysosome-targeting motif GYQTI and substituted by a 5-Ala repeat sequence.
(§2) Two days post transfection cells were processed, analyzed by flow cytometry (Guava® easyCyte™ 8HT) as mentioned in example 4.7, and the mean fluorescence was recorded. This fluorescence represents a semi-quantitative assessment of binding.

[2] = target: T2, Hybrid LAMP1 / glycan-deleted LAMP1 transmembrane proteins (Homo sapiens, UniProt P11279, A93T/T85V/V91T); details: pXL6017 LAMP1_mseq5_ΔGYQTI; Table 18
T2 construct: expressed in transfected cells; host or cells: 293-F (HEK293-derived), transient transfection
T2 sequence (P11279 with tags, fused parts or gaps T85V/V91T/A93T): T1 sequence (P11279 with tags, fused parts or gaps N45S/A49S/S51L/V52T/N53T/D55E) with S17N, S21A, L23S, T24V, T25N, E27D, T57V, V63T, A65T
Experimental: as §1, §2

[3] = target: T3, Hybrid LAMP1 / glycan-deleted LAMP1 transmembrane proteins (Homo sapiens, UniProt P11279, D70S/L75K/R77G/S69A/T72E/V74L); details: pXL6015 LAMP1_mseq4_ΔGYQTI; Table 18
T3 construct: expressed in transfected cells; host or cells: 293-F (HEK293-derived), transient transfection
T3 sequence (P11279 with tags, fused parts or gaps S69A/D70S/T72E/V74L/L75K/R77G): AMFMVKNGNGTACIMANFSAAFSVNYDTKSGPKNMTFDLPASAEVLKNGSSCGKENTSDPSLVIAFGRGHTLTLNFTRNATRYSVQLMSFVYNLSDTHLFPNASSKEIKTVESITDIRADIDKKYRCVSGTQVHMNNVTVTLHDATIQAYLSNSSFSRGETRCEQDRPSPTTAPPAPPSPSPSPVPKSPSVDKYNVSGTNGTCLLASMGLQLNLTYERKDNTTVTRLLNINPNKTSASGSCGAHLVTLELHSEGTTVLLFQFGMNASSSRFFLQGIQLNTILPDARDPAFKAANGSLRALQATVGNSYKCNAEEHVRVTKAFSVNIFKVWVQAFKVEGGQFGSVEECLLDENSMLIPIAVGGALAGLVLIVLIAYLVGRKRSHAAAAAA
Experimental: as §1, §2

[4] = target: T4, Hybrid LAMP1 / glycan-deleted LAMP1 transmembrane proteins (Mus musculus, UniProt P11438, E181G/G176S/K100R/K180R/L93T/N177S/S175N/T102A/Y92H); details: pXL6041 mLAMP1_hseq6-11_ΔGYQTI
T4 construct: expressed in transfected cells; host or cells: 293-F (HEK293-derived), transient transfection
T4 sequence (P11438 with tags, fused parts or gaps Y92H/L93T/K100R/T102A/S175N/G176S/N177S/K180R/E181G): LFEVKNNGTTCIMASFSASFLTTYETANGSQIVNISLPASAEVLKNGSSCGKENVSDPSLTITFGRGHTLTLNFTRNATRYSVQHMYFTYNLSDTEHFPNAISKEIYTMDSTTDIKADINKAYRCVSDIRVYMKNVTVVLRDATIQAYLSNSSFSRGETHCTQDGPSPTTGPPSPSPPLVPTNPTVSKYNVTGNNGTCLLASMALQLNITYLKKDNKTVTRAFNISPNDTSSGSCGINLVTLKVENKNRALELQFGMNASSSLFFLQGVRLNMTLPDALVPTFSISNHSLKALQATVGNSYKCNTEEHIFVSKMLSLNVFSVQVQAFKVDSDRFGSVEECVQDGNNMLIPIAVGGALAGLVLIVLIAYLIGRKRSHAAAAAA
Experimental: as §1, §2

[5] = target: T5, Hybrid LAMP1 / glycan-deleted LAMP1 transmembrane proteins (Mus musculus, UniProt P11438, E181G/G176S/K180R/N177S/S175N); details: pXL6048 mLAMP1_hseq11_ΔGYQTI
T5 construct: expressed in transfected cells; host or cells: 293-F (HEK293-derived), transient transfection
T5 sequence (P11438 with tags, fused parts or gaps S175N/G176S/N177S/K180R/E181G): T4 sequence (P11438 with tags, fused parts or gaps Y92H/L93T/K100R/T102A/S175N/G176S/N177S/K180R/E181G) with H68Y, T69L, R76K, A78T
Experimental: as §1, §2

| Molecule | Binding call [1] | Mean fluorescence [1] | Binding call [2] | Mean fluorescence [2] | Binding call [3] | Mean fluorescence [3] | Binding call ([4]; Table 17 Experiment no1) | Mean fluorescence ([4]; Table 17 Experiment no1) | Binding call ([4]; Table 17 Experiment no2) | Mean fluorescence ([4]; Table 17 Experiment no2) | Binding call ([5]; Table 17 Experiment no1) | Mean fluorescence ([5]; Table 17 Experiment no1) | Binding call ([5]; Table 17 Experiment no2) | Mean fluorescence ([5]; Table 17 Experiment no2) |
| --- | --- | --- | --- | --- | --- | --- | --- | --- | --- | --- | --- | --- | --- | --- |
| B1 | Binding | 990 | Binding | 846 | Binding | 891 | Binding | 680 | binding | 211 | No binding | 6 | No binding | 2 |
| B2 | Binding | 694 | Binding | 629 | No binding | 27 | No binding | 28 | – | – | No binding | 28 | – | – |
